Paper PMC8346283

Biological target: AmHv1, Hv1-type proton channel of Acropora millepora, tagged with fluorescent proteins (Acropora millepora)
Test: FRET or BRET; spectral FRET (sensitized emission of the acceptor) in HEK293 cells co-expressing mCerulean-AmHv1 (donor) and mCitrine-AmHv1 (acceptor); apparent FRET efficiency against Id/Ia from 134 cells, fitted to a model of random assembly into a dimer

In the case of “AmHv1, Hv1-type proton channel of Acropora millepora, tagged with fluorescent proteins (natural protein)”, the stoichiometry N is reported as 2.
